Substitutions are numbered along the chain they refer to. Numbers in names are those of the source. Where only a bound is given, the exact number is not on record here.

The target of experiment [1] is T1, Fhm, hTL1A(Q167R), soluble, CHO-expressed, residues 72-251 of SEQ ID NO:246 (human, UniProt O95150 72-251).
T1 construct: also called Fhm (CHO); FHM (CHO)
T1 chain: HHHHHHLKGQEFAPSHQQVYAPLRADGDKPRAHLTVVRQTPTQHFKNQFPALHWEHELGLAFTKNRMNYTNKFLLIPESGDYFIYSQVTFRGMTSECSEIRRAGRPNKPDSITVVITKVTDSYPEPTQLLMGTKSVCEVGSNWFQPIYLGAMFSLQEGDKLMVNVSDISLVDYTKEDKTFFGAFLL
The experiment is described as follows: ELISA, blocks FHM (10 pM) binding hDcR3-Fc; blocking of FHM binding to DcR3. On the procedure:
The ability of antibodies to block human TL1A binding to its cognate receptors, the DR3 and DcR3 receptors, was measured using a competition sandwich ELISA. In addition, blocking of a human TL1A variant FHM (human TL1A Q167R) and the cynomolgus monkey (Macaca fascicularis) TL1A (MfTL1A) protein binding to the human DR3 or DcR3 receptors was measured in the same manner. Constant amounts of biotinylated human TL1A or FHM (both expressed with a 6-His tag in CHO cells) or biotinylated MfTL1A (expressed in CHO cells) were separately titrated with varying amounts of antibodies. The antibody-protein complexes were incubated in solution (1 hr, 25° C.) and then transferred to microtiter plates coated with human DR3 (hDR3) or human DcR3 (hDcR3) expressed as human IgG1 Fc fusion proteins. After one hour at 25° C. the wells were washed, and bound human or monkey TL1A was detected with streptavidin conjugated with horseradish peroxidase (HRP). Wells were developed with a TMB solution to produce a colorimetric reaction and quenched with aqueous sulfuric acid before reading absorbance at 450 nm on a Perkin-Elmer Victor X5 plate reader. A sigmoidal dose-response curve was fit to the data using the Prism™ data analysis package. […] Both fully human anti-hTL1A mAbs and comparator antibodies, i.e., control mAb1 (an anti-hTL1A antibody with heavy and light chain variable domains having the amino acid sequences corresponding to SEQ ID NOS:21 and 27, respectively, of US 2009/0280116) and control mAb3 (an anti-hTL1A antibody with heavy and light chain variable domains having the amino acid sequences corresponding to SEQ ID NOS:57 and 48, respectively, of US 2009/0280116), were included in the study. NB: No binding under the conditions tested; NT: Not tested. Concentrations of biotinylated soluble ligands: (1) 150 pM; (2) 500 pM; (3) 10 pM; and (4) 50 pM.
On the technique in general: ELISA stands for enzyme-linked immunosorbent assay.

The target of experiment [2] is T2, cynomolgus monkey TL1A, soluble, CHO-expressed, residues 72-251 of SEQ ID NO:248 with N-terminal His6-tag (cynomolgus monkey (Macaca fascicularis), UniProt O95150 72-251 (human entry)).
T2 construct: also called MfTL1A; MfTL1A (CHO)
T2 chain: T1 chain with F45L, I84V, R102Q
The experiment is described as follows: SPR 25C, mAb captured; SPR, 25 C.

Experiment [3] deals with T2, cynomolgus monkey TL1A, soluble, …. The experiment is described as follows: ELISA, blocks MfTL1A (500 pM) binding hDR3-Fc; blocking of MfTL1A binding to hDR3. The method, then: The ability of antibodies to block human TL1A binding to its cognate receptors, the DR3 and DcR3 receptors, was measured using a competition sandwich ELISA. In addition, blocking of a human TL1A variant FHM (human TL1A Q167R) and the cynomolgus monkey (Macaca fascicularis) TL1A (MfTL1A) protein binding to the human DR3 or DcR3 receptors was measured in the same manner. Constant amounts of biotinylated human TL1A or FHM (both expressed with a 6-His tag in CHO cells) or biotinylated MfTL1A (expressed in CHO cells) were separately titrated with varying amounts of antibodies. The antibody-protein complexes were incubated in solution (1 hr, 25° C.) and then transferred to microtiter plates coated with human DR3 (hDR3) or human DcR3 (hDcR3) expressed as human IgG1 Fc fusion proteins. After one hour at 25° C. the wells were washed, and bound human or monkey TL1A was detected with streptavidin conjugated with horseradish peroxidase (HRP). Wells were developed with a TMB solution to produce a colorimetric reaction and quenched with aqueous sulfuric acid before reading absorbance at 450 nm on a Perkin-Elmer Victor X5 plate reader. A sigmoidal dose-response curve was fit to the data using the Prism™ data analysis package. […]

Experiment [4] has as its target T3, human TL1A, soluble, CHO-expressed, residues 72-251 of SEQ ID NO:244 with N-terminal His6-tag (human, UniProt O95150 72-251).
T3 construct: also called hTL1A; hTL1A (CHO)
T3 sequence: T1 chain with R102Q
The experiment is described as follows: SPR 25C, mAb captured; kd set at 1e-6 1/s; 25 C; kd set at 1x10^-6 1/s. The method, then: (§1) Measurements were conducted on a T100 BIACORE™ instrument. […] Kinetic association (kₐ) and dissociation (kd) rate constants were determined by fitting the data to a 1:1 binding model using BIAevaluation 4.1 curve fitting software (BIAcore Life Sciences). Molar concentrations of TL1A/Fhm used in the data fitting assumed a monomeric state for TL1A in solution. Binding dissociation equilibrium constants (KD) and dissociative half-lives (t_{1/2}) were calculated from the kinetic rate constants as: KD (M)=kd/kₐ; and t_{1/2} (min)=[In2/(60*kd)].

For experiment [5], the target named is T2, cynomolgus monkey TL1A, soluble, …. The experiment is described as follows: SPR 37C, mAb captured; SPR, 37 C. On the procedure:
as §1

The target of experiment [6] is T4, mouse TL1A, soluble, CHO-expressed, residues 76-252 of SEQ ID NO:250 with N-terminal His6-tag (mouse, UniProt Q5UBV8 76-252).
T4 construct: also called mTL1A; mTL1A (CHO)
T4 sequence: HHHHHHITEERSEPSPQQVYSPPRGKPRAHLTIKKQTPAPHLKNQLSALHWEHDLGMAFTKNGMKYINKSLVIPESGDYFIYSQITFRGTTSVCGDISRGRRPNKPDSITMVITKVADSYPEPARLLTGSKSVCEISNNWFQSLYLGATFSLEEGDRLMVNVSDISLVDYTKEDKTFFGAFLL
Nature of the experiment: SPR 25C, mAb captured; 25 C, CHO-expressed mTL1A, SPR. The method, then: as §1

Experiment [7] deals with T5, rat TL1A, soluble, CHO-expressed, residues 76-252 of SEQ ID NO:258 with N-terminal His6-tag (rat, UniProt Q8K3Y7 76-252).
T5 construct: also called rTL1A; rTL1A (CHO)
T5 sequence: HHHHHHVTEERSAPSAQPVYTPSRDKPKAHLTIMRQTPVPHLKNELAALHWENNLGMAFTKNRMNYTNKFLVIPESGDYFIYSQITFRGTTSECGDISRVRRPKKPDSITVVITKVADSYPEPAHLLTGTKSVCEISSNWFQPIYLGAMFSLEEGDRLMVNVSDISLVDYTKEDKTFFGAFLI
Nature of the experiment: SPR 37C, mAb captured; kd set at 1e-6 1/s. The method, then:
as §1

B1: H4H1681N (antibody, human IgG4 S228P, V domains shown)
VH: EVQLLESGGGLVQPGKSLRLSCAVSGFTFSTYGMNWVRQAPGKGLEWVSSISGTGRTTYHADSVQGRFTVSRDNSKNILYLQMNSLRADDTAVYFCTKERGDYYYGVFDYWGQGTLVTVSS
VL: DIQMTQSPSTLSASVGDRVTITCRASQTISSWLAWYQQTPEKAPKLLIYAASNLQSGVPSRFSGSGSGTEFTLTISSLQPDDFATYYCQQYHRSWTFGQGTKVEIT
On to B1, for which, in experiment [1], the IC50 – broadly, the concentration that inhibits the measured activity by half – was determined as 0.09 nM.

B2: H4H1750P (antibody, human IgG4 S228P, V domains shown)
VH: QVQLVESGGGVVQPGRSLRLSCVASGFTFSNYGMHWVRQAPGKGLEWVAVISYDGNNDLYSDSVKGRFTISRDNAKNALSLQMTSLRAEDTAVYYCARDSTMTPYYYHGIDVWGQGTTVTVSA
VL: DIQMTQSPSSLSASVGDRVTITCRASQDIRNDLGWYQQKPGKAPKRLIYAASSLQSGVPSRFSGSGSGTDFTLTISSLQPEDFATYYCLQHNSYPPTFGQGTKVEIK
As for B2, the Kd (usually the equilibrium constant for the complex coming apart) is 8.6 nM in experiment [2], at most 0.0158 nM in experiment [4] and 17.1 nM in experiment [5]. In addition, the t1/2 in experiment [2] turned out to be 21 min; in experiment [5], 11 min. Besides, the IC50 in experiment [3] stood at 5.21 nM.

B3: H4H1805N (antibody, human IgG4 S228P, V domains shown)
VH: QVQLQQWGAGLLKPSETLSLTCAVYGGSFTGFYWSWIRQPPGKGLEWIGEINHRGNTNYNPSLKSRVTMSVDTSKNQFSLNMISVTAADTAMYFCASPFYDFWSGSDYWGQGTLVTVSS
VL: DIMLTQTPLTSPVTLGQPASISCKSSQSLVHSDGNTYLSWLQQRPGQPPRLLFYKISNRFSGVPDRFSGSGAGTDFTLKISRVEAEDVGVYYCMQATQFPLTFGGGTKVEIK
notes: human IgG4(S108P) form of H2M1805N
With B3, the concentration for half-maximal inhibition (IC50) in experiment [1] worked out at 0.436 nM.

B4: H4H1818N (antibody, human IgG4 S228P, V domains shown)
VH: RLQLVESGGGLVKPGGSLKLSCAASGFTISDYYMSWIRQAPGKGLEWVSYIGGSGSTIYYADSVKGRFTISRDNAKNSLYLQMNSLRAEDTAVYYCAREDADSYYYYGMDVWGQGTTVTVSS
VL: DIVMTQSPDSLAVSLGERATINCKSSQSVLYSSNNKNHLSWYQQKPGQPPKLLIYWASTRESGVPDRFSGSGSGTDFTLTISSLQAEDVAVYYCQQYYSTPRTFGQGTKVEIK
notes: human IgG4(S108P) form of H2M1818N
With B4, in experiment [6], binding was put at a Kd of 7.1 nM and the t1/2 turned out to be 12 min. For the same molecule, in experiment [7], the Kd was at most 0.00061 nM and the t1/2 is at least 192 h.

Values taken from patent publication US20140120109A1 (Regeneron, published 2014).
